From article PMC8888459, “During FeS cluster biogenesis, ferredoxin and frataxin use overlapping binding sites on yeast cysteine desulfurase Nfs1” (The Journal of Biological Chemistry, 2022)

Target: T1, NIA–Isu1 complex with S. cerevisiae Isu1 (S. cerevisiae | E. coli (endogenous in …, UniProt P25374 37-497; Q6Q560 1-94; P0A6A8 1-78; Q03020 28-165)
T1 construct: Nfs1, mitochondrial cysteine desulfurase of S. cerevisiae; Isd11 of S. cerevisiae; acyl carrier protein of E. coli (ACPEc), endogenous in the expression host, 8.6 kD; Isu1, FeS cluster scaffold protein of S. cerevisiae (Isu1Sc); Formed in the reaction mixture from NIA and Isu1Sc; the number of Isu1 chains in the complex was not measured here; also called NIA–Isu1Sc; NIA and Isu1Sc mixture; …
Test: pull-down; competition: Yah1^GST (2.5 μM) with NIA (5 μM), with or without Isu1Sc or Isu1Ct (7.5 μM), then Yfh1 WT or DE/KK added (12.5 μM or increasing concentrations); glutathione resin; densitometry, amount without Yfh1 set as 100%; buffer PD
Details: both partners purified

T1 sequence (P25374 37-497, chain 1 of 4): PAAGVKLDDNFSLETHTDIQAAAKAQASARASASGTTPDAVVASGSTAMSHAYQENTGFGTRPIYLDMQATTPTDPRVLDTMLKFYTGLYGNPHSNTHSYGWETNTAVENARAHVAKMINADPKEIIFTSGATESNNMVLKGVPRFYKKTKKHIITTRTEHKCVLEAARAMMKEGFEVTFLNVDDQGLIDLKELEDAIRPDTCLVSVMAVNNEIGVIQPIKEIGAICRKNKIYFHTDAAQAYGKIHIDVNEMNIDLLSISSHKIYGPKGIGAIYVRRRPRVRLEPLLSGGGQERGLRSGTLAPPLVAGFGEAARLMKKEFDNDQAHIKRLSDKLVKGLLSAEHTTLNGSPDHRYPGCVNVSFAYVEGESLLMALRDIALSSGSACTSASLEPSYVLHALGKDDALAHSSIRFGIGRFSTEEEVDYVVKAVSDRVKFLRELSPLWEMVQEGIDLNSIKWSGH
T1 sequence (Q6Q560 whole entry, chain 2 of 4): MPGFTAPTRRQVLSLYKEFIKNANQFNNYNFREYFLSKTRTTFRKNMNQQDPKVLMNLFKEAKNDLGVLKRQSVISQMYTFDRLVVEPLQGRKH
T1 sequence (P0A6A8 whole entry, chain 3 of 4): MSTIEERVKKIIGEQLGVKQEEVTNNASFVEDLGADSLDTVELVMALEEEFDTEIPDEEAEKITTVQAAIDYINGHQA
T1 sequence (Q03020 28-165, chain 4 of 4): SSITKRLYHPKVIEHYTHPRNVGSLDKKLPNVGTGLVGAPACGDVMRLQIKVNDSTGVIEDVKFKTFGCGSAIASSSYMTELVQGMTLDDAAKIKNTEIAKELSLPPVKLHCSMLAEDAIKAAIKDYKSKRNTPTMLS

B1: Yfh1 (frataxin) with a C-terminal polyhistidine tag (natural protein, S. cerevisiae, UniProt Q07540 52-174, looked up)
chain: VESSTDGQVVPQEVLNLPLEKYHEEADDYLDHLLDSLEELSEAHPDCIPDVELSHGVMTLEIPAFGTYVINKQPPNKQIWLASPLSGPNRFDLLNGEWVSLRNGTKLTDILTEEVEKAISKSQ
notes: Yfh1, mitochondrial frataxin of S. cerevisiae; also called Yfh1 (WT); source: E. coli expression systems
- percent reduction of Nfs1, Isd11 and Isu1 pulled down with Yah1^GST at a fivefold excess of Yfh1 (12.5 μM): 85%
